Data reported in US20230242671A1 (Eli Lilly, published 2023).

Assays:
[1] = target: T1, CaptureSelect Kappa XL ligand; assay: CaptureSelect Kappa XL affinity column after Protein A
T1 construct: also called Biotin-KappaXL; Kappa XL column
Excerpt: Multispecific binding proteins of the present disclosure, in clarified medium or recovered from Protein A purification, may be subjected to a second purification step using a CaptureSelect™ Kappa XL (Thermo Fisher Cat. #494321001) pre-packed affinity column. Briefly, multispecific binding proteins of the present disclosure recovered from Protein A purification are subjected to a Kappa XL affinity column which has been equilibrated with a compatible buffer, such as phosphate buffered saline (PBS) at pH 7.4. The column is then washed to remove nonspecific binding components. The bound multispecific binding protein is eluted, for example, by pH gradient (such as 20 mM Tris buffer pH 7.0 to 10 mM sodium citrate buffer pH 3.0). Binding protein fractions are detected, such as by UV absorbance or SDS-PAGE, and then are pooled.
Percent flow through (% F T) and percent elution of exemplified heteromabs of the present disclosure following kappa XL column purification essentially as described herein is assessed. Briefly, various antibody formats (as set forth in Table 3) are subjected to Kappa XL column. Flow through material is considered to comprise of impurities, such as homodimers, or misassembled antibodies, whereas the Kappa XL ligand bound material (elution material) is considered to be the correctly assembled bispecific antibody.

human TIGIT-ECD = target: T2, human TIGIT-ECD (human, UniProt Q495A1 22-141); assay: ELISA, antibody at 1 µg/mL captured by anti-human-Fc, antigen titrated
T2 construct: extracellular domain
T2 sequence (looked up): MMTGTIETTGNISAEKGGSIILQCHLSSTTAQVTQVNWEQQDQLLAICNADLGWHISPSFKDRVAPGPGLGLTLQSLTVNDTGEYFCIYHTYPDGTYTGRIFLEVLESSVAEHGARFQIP
Description: (§1) Binding affinity of exemplified multispecific binding proteins provided herein is assessed via ELISA. Briefly, 384-well flat bottom Elisa plates are coated with 1 ug/mL anti-human-Fc protein at 20 ul/well and incubated overnight at 4° C. The following day, plates are washed 3× with wash buffer (0.05% PBS-Tween 20) and blocked for 1 hr with blocking buffer (casein, 60 μL/well) at room temperature (RT). Plates are washed 3× with wash buffer, and binding proteins as shown in Table 10 are added at 1 μg/mL in triplicates at 20 uL/well in DPBS (Dulbecco's HyClone). Plates are incubated at RT for 1 hr, washed 3× with wash buffer, and titrated antigens are added at 20 ul/well and incubated for 60 min at RT. Plates are washed 3×, and 20 uL/well NAAP substrate is added and incubated for 20 min. Plates are washed 3×, and PNPP substrate is added at 20 uL/well, and reactions are stopped, and optical density is measured using a colorimetric microplate reader set to 405 nm.

human PD-1-ECD = target: T3, human PD-1-ECD (human, UniProt Q15116 25-170); assay: as above
T3 construct: extracellular domain
Description: as §1

T3 sequence (Q15116 25-170): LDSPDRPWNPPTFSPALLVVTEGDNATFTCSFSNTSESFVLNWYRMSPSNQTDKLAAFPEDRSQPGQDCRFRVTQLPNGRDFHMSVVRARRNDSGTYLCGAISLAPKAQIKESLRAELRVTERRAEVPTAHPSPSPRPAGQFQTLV

B1: PD-1-TIGIT IgG1 heteromab (DKK on PD-1 light chain Fab region only) (bispecific antibody)
heavy 1: QVQLVQSGAEVKKPGSSVKVSCKASGGTFSSYAISWVRYAPGQGLEWMGLIIPSFDTAGYAQKFQGRVAITVDESTSTAYMELSSLRSEDTAVYYCARAEHSSTGTFDYWGRGTLVTVSSASTKGPSVFPLAPSSKSTSGGTAALGCLVADYFPEPVTVSWNSGALTSGVHTFPAVLQSSGLYSLASVVTVPSSSLGTQTYICNVNHKPSNTKVDERVEPKSCDKTHTCPPCPAPEAAGGPSVFLFPPKPKDTLMISRTPEVTCVVVDVSHEDPEVKFNWYVDGVEVHNAKTKPREEQYNSTYRVVSVLTVLHQDWLNGKEYKCKVSNKALAAPIEKTISKAKGQPREPQVYTLPPSREEMTDNQVSLTCLVKGFYPSDIAVEWESNGQPENNYKTTPPVLMSDGSFFLASKLTVDKSRWQQGNVFSCSVMHEALHNHYTQKSLSLSPGK
light 1: DIQMTQSPSSVSASVGDRVTITCRASQGISSWLAWYQRKPGDAPKLLISAASSLQSGVPSRFSGSGSGTDFTLTISSLQPEDFATYYCQQANHLPFTFGGGTKVEIKRTDAAPSVFIFPPSDKQLKSGTARVVCLLNNFYPRKAKVQWKVDNALQSGNSQESVTEQDSKDSTYSLISTLTLSKADYEKHKVYACEVTHKGLSSPVTKSFNRGEC
heavy 2: EVQLVESGGGLVQPGGSLRLSCAASGFDFSSYGVPWVRKAPGKGLEWVGYIDPIFGPTYYADEVKGRFTISADDSKNSLYLQMNSLKTEDTAVYYCARDYSYGYAYALDIWGQGTLVTVSSASTKGPSVFPLAPSSKSTSGGTAALGCLVKDYFPEPVTVSWNSGALTSGVHTFPAVLQSSGLYSLSSVVTVPSSSLGTQTYICNVNHKPSNTKVDKRVEPKSCDKTHTCPPCPAPEAAGGPSVFLFPPKPKDTLMISRTPEVTCVVVDVSHEDPEVKFNWYVDGVEVHNAKTKPREEQYNSTYRVVSVLTVLHQDWLNGKEYKCKVSNKALAAPIEKTISKAKGQPRRPRVYTLPPSREEMTKNQVSLVCLVKGFYPSDIAVEWESNGQPENNYKTTPPVLDSDGSFFLYSVLTVDKSRWQQGNVFSCSVMHEALHNHYTQKSLSLSPGK
light 2: RIVMTQTPLSLSVTPGQPASISCQASQRISPYLAWYLDKPGQPPQLLISRASKLASGVPDRFSGSGSGTDFTLKISRVEAEDVGVYYCQSYYVHTSSGYAFGGGTKVEIKRTVAAPSVFIFPPSDEQLKSGTASVVCLLNNFYPREAKVQWKVDNALQSGNSQESVTEQDSKDSTYSLSSTLTLSKADYEKHKVYACEVTHQGLSSPVTKSFNRGEC
notes: also called PD-1-Tigit IgG1 heteromab (with DKK LC Fab region on PD-1 arm only)
[1]
  % Elution: 80.7%
  % Flow Through (FT): 19.3%
Human TIGIT-ECD
  EC50: 45.4 pM
Human PD-1-ECD
  EC50: 10.8 pM
